Measured values reported in PMC4522657, “Identification of a DYRK1A Inhibitor that Induces Degradation of the Target Kinase using Co-chaperone CDC37 fused with Luciferase nanoKAZ” (Scientific Reports, 2015).
One block for each binder: values may come before it.

Legend:
Assay in all cases: ELISA; Lysates (HENG buffer: 50 mM HEPES-KOH pH 7.9, 150 mM NaCl, 20 mM Na2MoO4, 2 mM EDTA, 5% glycerol, 0.5% Triton X-100) of 293T cells stably expressing CDC37-nanoKAZ, nanoKAZ-HSP90β or nanoKAZ and transiently transfected with 3xFLAG-tagged kinases; 3xFLAG-kinase captured on 96-well plates coated with anti-FLAG M2, 4 °C for 3 h, washed; bound nanoKAZ fusion read by luminescence (Imax) with bis-coelenterazine, as …
Details in all cases: partners not purified
3xFLAG-tagged DYRK4 = molecular target: T1, 3xFLAG-tagged DYRK4 (UniProt Q9NR20 1-520)
T1 construct: DYRK4; residues of F2A may remain at the C-terminus (surmise); also called 3xFLAG-DYRK4; source: 293T cells stably expressing CDC37-nanoKAZ, transiently transfected (pcDNA5/FRT/TO), in lysate
T1 sequence (looked up): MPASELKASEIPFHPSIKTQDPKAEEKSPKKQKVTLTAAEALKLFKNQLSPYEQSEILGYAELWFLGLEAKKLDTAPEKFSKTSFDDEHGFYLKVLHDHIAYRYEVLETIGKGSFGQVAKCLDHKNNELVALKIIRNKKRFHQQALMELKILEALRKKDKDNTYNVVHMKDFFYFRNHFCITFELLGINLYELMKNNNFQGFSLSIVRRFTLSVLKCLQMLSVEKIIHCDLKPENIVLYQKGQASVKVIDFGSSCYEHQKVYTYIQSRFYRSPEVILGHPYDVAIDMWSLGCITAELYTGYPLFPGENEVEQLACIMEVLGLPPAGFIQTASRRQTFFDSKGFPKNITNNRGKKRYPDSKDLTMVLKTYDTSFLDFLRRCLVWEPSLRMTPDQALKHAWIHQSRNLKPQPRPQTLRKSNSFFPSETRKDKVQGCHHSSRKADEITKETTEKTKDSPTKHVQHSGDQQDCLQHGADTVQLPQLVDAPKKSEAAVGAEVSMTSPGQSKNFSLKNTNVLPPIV

3xFLAG-DYRK1A (Y111F) = molecular target: T2, 3xFLAG-DYRK1A (Y111F) (UniProt Q13627-1 1-763, Y111F)
T2 construct: DYRK1A with the autophosphorylation site Tyr111 substituted to Phe; Expressed upstream of F2A-EGFP as m2

[1] = molecular target: T3, 3xFLAG-DYRK1A (Y145F/Y147F) (UniProt Q13627-1 1-763, Y145F | Y147F)
T3 construct: DYRK1A with the autophosphorylation sites Tyr145 and Tyr147 substituted to Phe; Expressed upstream of F2A-EGFP as m2

[2] = molecular target: T4, 3xFLAG-tagged kinase-dead mutant of DYRK1A (K188R) (UniProt Q13627-1 1-763, K188R)
T4 construct: DYRK1A with Lys188 substituted to Arg; Expressed upstream of F2A-EGFP as m2; also called K188R mutant

[3] = molecular target: T5, 3xFLAG-DYRK1A (Y319F/Y321F) (UniProt Q13627-1 1-763, Y319F | Y321F)
T5 construct: Expressed upstream of F2A-EGFP as m2; also called Y319F/Y321F mutant; DYRK1A mutant

3xFLAG-DYRK1A (Y159F) = molecular target: T6, 3xFLAG-DYRK1A (Y159F) (UniProt Q13627-1 1-763, Y159F)
T6 construct: DYRK1A with the autophosphorylation site Tyr159 substituted to Phe; Expressed upstream of F2A-EGFP as m2

fold stronger interaction than 3xFLAG-DYRK1A (3xFLAG-tagged DYRK4): 102 fold
fold stronger interaction than intact DYRK1A (3xFLAG-DYRK1A (Y111F)): 1.4 fold
fold stronger interaction than intact DYRK1A [1]: 2.4 fold
fold stronger interaction than intact DYRK1A [2]: 17 fold
fold stronger interaction than intact DYRK1A [3]: 8 fold
fold stronger interaction than intact DYRK1A (3xFLAG-DYRK1A (Y159F)): 8.4 fold
B1: CDC37-nanoKAZ (natural protein, UniProt Q16543 1-378, looked up)
chain: MVDYSVWDHIEVSDDEDETHPNIDTASLFRWRHQARVERMEQFQKEKEELDRGCRECKRKVAECQRKLKELEVAEGGKAELERLQAEAQQLRKEERSWEQKLEEMRKKEKSMPWNVDTLSKDGFSKSMVNTKPEKTEEDSEEVREQKHKTFVEKYEKQIKHFGMLRRWDDSQKYLSDNVHLVCEETANYLVIWCIDLEVEEKCALMEQVAHQTIVMQFILELAKSLKVDPRACFRQFFTKIKTADRQYMEGFNDELEAFKERVRGRAKLRIEKAMKEYEEEERKKRLGPGGLDPVEVYESLPEELQKCFDVKDVQMLQDAISKMDPTDAKYHMQRCIDSGLWVPNSKASEAKEGEEAGPGDPLLEAVPKTGDEKDVSV
notes: Kinase-specific co-chaperone CDC37; also called CDC37 fused with nanoKAZ; source: 293T cells stably expressing CDC37-nanoKAZ (pCAGIPuro vector), in lysate; not shown: nanoKAZ (luciferase reporter), C-terminal, kept

fold stronger interaction than intact DYRK1A [2]: 10 fold
fold stronger interaction than intact DYRK1A [3]: 3.8 fold
B2: nanoKAZ-HSP90β (natural protein)
chain: not shown
notes: HSP90β (HSP90AB1 gene product); Codon-optimized nanoKAZ (GenBank AB823628) fused to the amino-terminus of HSP90β; also called HSP90β fused with nanoKAZ; nanoKAZ-HSP90AB1; source: 293T cell line stably expressing nanoKAZ-HSP90β (pCAGIPuro vector), in lysate; not shown: nanoKAZ (luciferase reporter), N-terminal, kept
